# Target: the molecule itself
# Assay: SEC
row,Protein,stoichiometry N
1,"Bacillus subtilis Fur (ferric uptake regulator), wild type (natural protein, UniProt P54574 1-149, looked up) MENRIDRIKKQLHSSSYKLTPQREATVRVLLENEEDHLSAEDVYLLVKEKSPEIGLATVYRTLELLTELKVVDKINFGDGVSRYDLRKEGAAHFHHHLVCMECGAVDEIEEDLLEDVEEIIERDWKFKIKDHRLTFHGICHRCNGKETE",2
2,"Bacillus subtilis Fur H132A (site 3 mutant) (natural protein, UniProt P54574 1-149, looked up) MENRIDRIKKQLHSSSYKLTPQREATVRVLLENEEDHLSAEDVYLLVKEKSPEIGLATVYRTLELLTELKVVDKINFGDGVSRYDLRKEGAAHFHHHLVCMECGAVDEIEEDLLEDVEEIIERDWKFKIKDARLTFHGICHRCNGKETE",2
3,"Bacillus subtilis Fur H97A (site 2 mutant) (natural protein, UniProt P54574 1-149, looked up) MENRIDRIKKQLHSSSYKLTPQREATVRVLLENEEDHLSAEDVYLLVKEKSPEIGLATVYRTLELLTELKVVDKINFGDGVSRYDLRKEGAAHFHHALVCMECGAVDEIEEDLLEDVEEIIERDWKFKIKDHRLTFHGICHRCNGKETE",2
4,"Bacillus subtilis Fur H96A (site 3 mutant) (natural protein, UniProt P54574 1-149, looked up) MENRIDRIKKQLHSSSYKLTPQREATVRVLLENEEDHLSAEDVYLLVKEKSPEIGLATVYRTLELLTELKVVDKINFGDGVSRYDLRKEGAAHFHAHLVCMECGAVDEIEEDLLEDVEEIIERDWKFKIKDHRLTFHGICHRCNGKETE",2
5,"Bacillus subtilis Fur H37A (site 2 mutant) (natural protein, UniProt P54574 1-149, looked up) MENRIDRIKKQLHSSSYKLTPQREATVRVLLENEEDALSAEDVYLLVKEKSPEIGLATVYRTLELLTELKVVDKINFGDGVSRYDLRKEGAAHFHHHLVCMECGAVDEIEEDLLEDVEEIIERDWKFKIKDHRLTFHGICHRCNGKETE",2
6,"Bacillus subtilis Fur H95A (site 2 mutant) (natural protein, UniProt P54574 1-149, looked up) MENRIDRIKKQLHSSSYKLTPQREATVRVLLENEEDHLSAEDVYLLVKEKSPEIGLATVYRTLELLTELKVVDKINFGDGVSRYDLRKEGAAHFAHHLVCMECGAVDEIEEDLLEDVEEIIERDWKFKIKDHRLTFHGICHRCNGKETE",2
